Laboratory results: patent publication US9695461B2, “Method for adapting a hydrolytic enzyme to a component that stabilizes the hydrolytic enzyme” (Henkel AG & Co. KGaA, priority 2011, dated 2017)
Where a chain is given by its changes, count along the chain named. Names and notes keep the numbering of the source.

B1: S166: protease according to SEQ ID NO: 3 used as the hydrolytic enzyme (starting enzyme) (protein, listed as Bacillus lentus)
chain: AQSVPWGISRVQAPAAHNRGLTGSGVKVAVLDTGISTHPDLNIRGGASFVPGEPSTQDGNGHGTHVAGTIAALNNSIGVLGVAPSAELYAVKVLGADGEGAISSIAQGLEWAGNNGMHVANLSLGSPSPSATLEQAVNSATSRGVLVVAASGNSGASSISYPARYANAMAVGATDQNNNRASFSQYGAGLDIVAPGVNVQSTYPGSTYASLNGTSMATPHVAGAAALVKQKNPSWSNVQIRNHLKNTATSLGSTNLYGSGLVNAEAATR
B2: S166V: protease of SEQ ID NO: 3 with amino acid substitution S166V in the count according to SEQ ID NO: 1 (protein, listed as Bacillus lentus)
chain: B1 chain with S160V
B3: S166G/Q191R: protease of SEQ ID NO: 3 with amino acid substitutions S166G and Q191R in the count according to SEQ ID NO: 1 (protein, listed as Bacillus lentus)
chain: B1 chain with S160G, Q185R

Key:
[1] = system: protease according to SEQ ID NO: 3; experiment: Relative proteolytic activity with reversible inhibitor in liquid surfactant preparation (Example 1); assay type: biochemical; details: 50% conc. surfactant preparation, 0.92 mM AAPF, 25° C., pH 8.6, relative to same protease without inhibitor; for relative activity, 3-HPBA: 3-HPBA in amount inhibiting starting enzyme by 20-40%; for relative activity, 4-FPBA: 4-FPBA in amount inhibiting starting enzyme by 20-40%; for relative activity, Boric acid: boric acid in amount inhibiting starting enzyme by 20-40%; for relative activity, BMA: benzylmalonic acid in amount inhibiting starting enzyme by 20-40%
Text: The relative activity to be determined in process step c) of the hydrolytic enzyme modified in process step b) is given by [measured activity of the hydrolytic enzyme modified in process step b) in the presence of the component that stabilizes the hydrolytic enzyme] divided by [measured activity of the hydrolytic enzyme modified in process step b) in the absence of the component that stabilizes the hydrolytic enzyme] multiplied by 100.
The relative activity of the starting enzyme to be determined in process step c) is given by [measured activity of the starting enzyme in the presence of the component that stabilizes the hydrolytic enzyme] divided by [measured activity of the starting enzyme in the absence of the component that stabilizes the hydrolytic enzyme] multiplied by 100.
The nucleic acid sequence of the hydrolytic enzyme present on a plasmid was modified individually or in combination as indicated in Tables 1 and 2 using site directed mutagenesis by means of specific, adapted primers using a Phusion Hot Start Polymerase at the positions S166, A187, F189 or Q191 in the counting according to SEQ ID NO: 1, and the resulting variants were transformed into a suitable host. Active clones were selected by means of a protease-sensitive medium and the DNA sequence was sequenced after isolation of the plasmid for identification purposes. The modified proteases were expressed in the Bacillus host and prepared for the activity determination.
The activity was determined in a liquid preparation that was constituted as follows (all data in wt %): 0.3-0.5% xanthan, 0.2-0.4% defoamer, 6-7% glycerin, 0.3-0.5% ethanol, 4-7% FAEOS (fatty alcohol ether sulfate), 24-28% non-ionic surfactants, 1-2% sodium citrate (dihydrate), 2-4% soda, 14-16% cocoanut fatty acids, 0.5% HEDP (1-hydroxyethane-(1,1-diphosphonic acid)), 0-0.4% PVP (polyvinyl pyrrolidone) 0-0.5% optical brightener, 0-0.001% % colorant, the remainder being demineralized water.
To a 50% conc. liquid preparation of the liquid surfactant preparation were added 0.92 mM AAPF. The reversible inhibitor to be tested was also comprised in the required amount to inhibit the starting enzyme by 20-40%. 20 μl of the respective protease (starting enzyme as well as modified protease variants) were added and the proteolytic activity determined from the release of the chromophore para-nitroaniline (pNA) from the substrate suc-L-Ala-L-Ala-L-Pro-L-Phe-p-nitroanilide (suc-AAPF-pNA). The protease cleaves the substrate and releases pNA. The released pNA causes the extinction at 410 nm to increase; the change in extinction as a function of time is a measure of the enzymatic activity (see Del Mar et al., 1979). The measurement was carried out at a temperature of 25° C., at pH 8.6 and a wavelength of 410 nm.
The measured activity was compared with the activity of a reference formulation of the same protease sample without inhibitor and the respective relative activities of the modified proteases and the starting enzyme were determined. […] The results are presented in the following Tables 1 and 2 (the relative activities are each given).

[2] = system: protease according to SEQ ID NO: 3; experiment: Inhibition measurements in the biochemical test (Example 2); details: 0.1 M Tris/HCl pH 8.6 with Brij35, suc-AAPF-pNA
Description: The variants S166V and S166G/Q191R as well as the starting enzyme according to SEQ ID NO: 3 were expressed in a suitable expression system, further purified by means of ion exchange chromatography and prepared for the activity determinations in 0.1 M Tris/HCl buffer pH 8.6, comprising Brij35. To the formulations were added increased amounts of the reversible inhibitor 3-HPBA or BMA (see Tables 3 and 4) and the proteolytic residual activity of the respective protease was determined from the release of the chromophore para-nitroaniline (pNA) from the substrate suc-L-Ala-L-Ala-L-Pro-L-Phe-p-nitroanilide (suc-AAPF-pNA) as described above.

| Molecule | relative activity, 3-HPBA ([1]; Table 1) | relative activity, 4-FPBA ([1]; Table 1) | relative activity, Boric acid ([1]; Table 1) | relative activity, BMA ([1]; Table 2) | relative activity, Boric acid ([1]; Table 2) | proteolytic residual activity, 3-HPBA ([2]; 3-HPBA 0.05 mM) | proteolytic residual activity, 3-HPBA ([2]; 3-HPBA 0.1 mM) | proteolytic residual activity, 3-HPBA ([2]; 3-HPBA 0.5 mM) | proteolytic residual activity, 3-HPBA ([2]; 3-HPBA 1 mM) | proteolytic residual activity, 3-HPBA ([2]; 3-HPBA 1.5 mM) | proteolytic residual activity, BMA ([2]; BMA 0.05 Gew.-%) | proteolytic residual activity, BMA ([2]; BMA 0.5 Gew.-%) | proteolytic residual activity, BMA ([2]; BMA 1.0 Gew.-%) | proteolytic residual activity, BMA ([2]; BMA 1.7 Gew.-%) | proteolytic residual activity, BMA ([2]; BMA 2.5 Gew.-%) | proteolytic residual activity, BMA ([2]; BMA 3.3 Gew.-%) | proteolytic residual activity, BMA ([2]; BMA 4.0 Gew.-%) | proteolytic residual activity, BMA ([2]; BMA 5.0 Gew.-%) |
| --- | --- | --- | --- | --- | --- | --- | --- | --- | --- | --- | --- | --- | --- | --- | --- | --- | --- | --- |
| B1 | 83% | 75% | 83% | 81% | 79% | 93% | 89% | 81% | 65% | 56% | 96% | 95% | 93% | 94% | 74% | 73% | 78% | 64% |
| B2 | 53% | 71% | 59% | – | – | 84% | 87% | 65% | 51% | 40% | – | – | – | – | – | – | – | – |
| B3 | – | – | – | 35% | 57% | – | – | – | – | – | 88% | 55% | 42% | 35% | 38% | 32% | 36% | 32% |
